Consider four compounds from patent US9334316B2, “Formulations comprising glucagon” (Oregon Health & Science University, priority 2014, dated 2016).

Read-outs that look alike come from different tables or passages of the source.

Data set [1] can be described thus: 1st order degradation kinetics of ferulic acid / tetrahydrocurcumin in glucagon formulations. The format is physicochemical. To be noted: for half-life at 1 mM: buffer, read-out: degradation t1/2 (converted).
Data set [2] relates to cultured mammalian cells. To be noted: fibrillated glucagon; cited from earlier work.
The conditions of data set [3]: 37° C., alkaline (around pH 10) compared to acidic (about pH 3); cited from earlier work.
Data set [4] in a line: Reversed phase LCMS of glucagon modifications after aging. Format: physicochemical. The procedure:
FIG. 3 is a set of four chromatograms from reversed phase LCMS showing the modifications present in glucagon incubated with ferulic acid under the indicated conditions and the recovery by adding varying amounts of L-methionine. The peak indicated as ‘A’ is identified as Met27 oxidation of glucagon; the peak indicated as ‘B’ is a minor breakdown product; the peaks indicated as ‘C’ are identified as glycine adducts.
FIG. 4 is a set of four spectra from reversed phase LCMS showing the modifications present in glucagon incubated under the indicated conditions. The peak indicated as ‘A’ is identified as Met27 oxidation of glucagon; the peak indicated as ‘B’ is a minor breakdown product; the peaks indicated as ‘C’ are identified as glycine adducts.
This oxidation occurs on amino acid residue 27, which is a methionine residue (Met27). In order to minimize oxidation, L-methionine was added to the formulation as an antioxidant at 0.1 and 1 mg/ml. […] This is presumably due to activation of a reactive site on the glucagon backbone that results in an addition reaction with glycine from the bulk solvent. In order to maximize the antioxidant properties while also minimizing the glycine adduct formation, a concentration of 0.1 mg/ml L-methionine was tested. Results are shown in the third panel from the top of FIG. 3. This particular formulation had some minor chain cleavage (peak B) that is variable from batch to batch. As a result, the formulation referred to herein as FAFG includes 0.1 mg/ml L-methionine.
This peak is inhibited at 0.1 mg/ml L-methionine added and nearly absent at 1 mg/ml L-methionine to minimize the oxidation even though glycine adducts are still in high amounts. As a result, the formulation referred to herein as THCFG includes 1 mg/ml L-methionine.
Ferulic acid and tetrahydrocurcumin modify glucagon less than curcumin.

The conditions of data set [5]: cited from earlier work.
Data set [6] is described as follows: Curcumin half-life in glycine buffer at pH 9.0. The format is physicochemical. From the text:
Curcumin reduces Aβ fibril formation in vitro and when administered systemically to transgenic rodents predisposed to Alzheimer's disease (Hamaguchi T et al, Am J Pathol 175, 2557-2565 (2009) incorporated by reference herein). Curcumin has also been reported to inhibit the polymerization of α-synuclein, the compound responsible for Lewy body formation in diseases such as Parkinson's disease (Ono K and Yamada M, Curr Pharm Des 14, 3247-3266 (2008) and Ono K et al Curr Pharm Des 14, 3247-3266 (2008); both of which are incorporated by reference herein). This finding was confirmed in Pandey N et al, Acta Neuropathol 115, 479-489 (2008); which is incorporated by reference herein. However, curcumin stored in a glycine buffer at pH 9.0 degrades quickly with a half-life of about 7 hours.

Turning to `COc1cc(CCC(=O)CC(=O)CCc2ccc(O)c(OC)c2)ccc1O` [tetrahydrocurcumin], the “1st order degradation k” value is 0.00886 s⁻¹ in data set [1] (1 mM compound in 80 mM glycine pH 9.0), 0.000743 s⁻¹ in data set [1] (1 mM compound in 80 mM glycine pH 9.0 + 1 mg/ml glucagon) and -0.0025 s⁻¹ in data set [1] (1 mM compound in 80 mM glycine pH 9.0 + 1 mg/ml glucagon + 1 mg/ml HSA). The half-life at 1 mM in data set [1] (pH 9, 1 mM compound in 80 mM glycine pH 9.0 + 1 mg/ml glucagon) is 38.9 days; in data set [1] (pH 9, 1 mM compound in 80 mM glycine pH 9.0), roughly 3.25 days.
As to glucagon, the cytotoxicity entry in data set [2] was “cytotoxic”; in data set [5] (aged at pH 10 in glycine), “no cytotoxicity”; in data set [5] (aged for 5 days at pH 8.5, concentration 2.5 mg/ml) it was “some cytotoxicity”. For the same compound, in data set [3], the amyloid fibril formation result is reported as “much less amyloid fibril formation”. The “Met27 oxidation of glucagon (peak A, LCMS)” value in data set [4] (aged 7 days at 37° C. with 1 mM ferulic acid) is recorded as “minor oxidation occurs”; in data set [4] (aged with 1 mM ferulic acid + 1 mg/ml L-methionine), “minimization of oxidation”; in data set [4] (incubated with tetrahydrocurcumin), “much higher amount of Met27 oxidation”; in data set [4] (tetrahydrocurcumin + 0.1 mg/ml L-methionine) it was “inhibited”; in data set [4] (tetrahydrocurcumin + 1 mg/ml L-methionine), “nearly absent”. Moreover, the “retention of unmodified glucagon” value in data set [4] (curcumin formulation + 1 mg/ml L-methionine) is reported as “higher retention of unmodified glucagon”. Also, the oxidation of glucagon entry in data set [4] (incubated with curcumin for 7 days at 37° C.) is listed as “complete oxidation”.
For `COc1cc(/C=C/C(=O)O)ccc1O` [ferulic acid], the “1st order degradation k” value in data set [1] (1 mM, pH 9) was -0.000701 s⁻¹.
Consider `COc1cc(/C=C/C(=O)CC(=O)/C=C/c2ccc(O)c(OC)c2)ccc1O` [curcumin], for which the half-life in data set [6] (glucagon buffer with further addition of human serum albumin) is 2010 min; in data set [6] (in a glucagon buffer), 750 min; in data set [6] (stored in glycine buffer at pH 9.0) it was roughly 420 min.
